Experimental data published in the Immune Epitope Database (IEDB).

How the values were obtained:
[1] = molecular target: HLA-B*58:01; assay: IEDB peptide-MHC binding, purified MHC/competitive/radioactivity; filed as Kd, often an IC50 or EC50 that approximates it; ≥ and ≤ were set here for values at or beyond the usual limits of such assays
[2] = molecular target: HLA-B*57:01; assay: as above
[3] = molecular target: HLA-B*08:02; assay: IEDB peptide-MHC binding, purified MHC/direct/fluorescence; filed as Kd, often an IC50 or EC50 that approximates it; ≥ and ≤ were set here for values at or beyond the usual limits of such assays
[4] = molecular target: HLA-A*02:03; assay: as above
[5] = molecular target: HLA-A*02:12; assay: as above
[6] = molecular target: HLA-A*69:01; assay: as above
[7] = molecular target: HLA-A*02:11; assay: as above
[8] = molecular target: HLA-B*15:42; assay: IEDB peptide-MHC binding, purified MHC/competitive/fluorescence; filed as Kd, often an IC50 or EC50 that approximates it; ≥ and ≤ were set here for values at or beyond the usual limits of such assays
[9] = molecular target: HLA-B*45:06; assay: as above
[10] = molecular target: HLA-B*83:01; assay: as above
[11] = molecular target: HLA-B*18:01; assay: IEDB peptide-MHC binding, purified MHC/direct/fluorescence; filed as Kd, often an IC50 or EC50 that approximates it; ≥ and ≤ were set here for values at or beyond the usual limits of such assays; conditions: source organism: Yellow fever virus 1899/81
[12] = molecular target: HLA-B*15:01; assay: as above; conditions: source organism: Campylobacter jejuni
[13] = molecular target: HLA-A*32:01; assay: IEDB peptide-MHC binding, purified MHC/competitive/radioactivity; filed as Kd, often an IC50 or EC50 that approximates it; ≥ and ≤ were set here for values at or beyond the usual limits of such assays; conditions: source organism: Dengue virus 3 Martinique/1243/1999
[14] = molecular target: HLA-B*15:17; assay: IEDB peptide-MHC binding, purified MHC/competitive/fluorescence; filed as Kd, often an IC50 or EC50 that approximates it; ≥ and ≤ were set here for values at or beyond the usual limits of such assays
[15] = molecular target: HLA-B*51:01; assay: as above
[16] = molecular target: HLA-B*18:01; assay: as above
[17] = molecular target: HLA-B*46:01; assay: as above
[18] = molecular target: HLA-B*57:01; assay: as above
[19] = molecular target: HLA-B*39:01; assay: as above
[20] = molecular target: HLA-A*69:01; assay: as above
[21] = molecular target: HLA-B*27:03; assay: as above
[22] = molecular target: HLA-A*26:01; assay: as above
[23] = molecular target: HLA-A*24:03; assay: IEDB peptide-MHC binding, purified MHC/direct/fluorescence; filed as Kd, often an IC50 or EC50 that approximates it; ≥ and ≤ were set here for values at or beyond the usual limits of such assays
[24] = molecular target: HLA-A*03:01; assay: as above
[25] = molecular target: HLA-A*02:19; assay: as above
[26] = molecular target: HLA-A*68:02; assay: as above; conditions: source organism: Araucaria virus
[27] = molecular target: HLA-B*15:01; assay: IEDB peptide-MHC binding, purified MHC/competitive/fluorescence; ≥ and ≤ were set here for values at or beyond the usual limits of such assays
[28] = molecular target: HLA-A*02:01; assay: as above; conditions: source organism: Vaccinia virus
[29] = molecular target: HLA-A*11:01; assay: as above; conditions: source organism: Zaire ebolavirus
[30] = molecular target: HLA-B*08:01; assay: IEDB peptide-MHC binding, purified MHC/direct/fluorescence; filed as Kd, often an IC50 or EC50 that approximates it; ≥ and ≤ were set here for values at or beyond the usual limits of such assays; conditions: source organism: Mycobacterium tuberculosis str. Haarlem
[31] = molecular target: HLA-A*02:03; assay: IEDB peptide-MHC binding, purified MHC/competitive/radioactivity; filed as Kd, often an IC50 or EC50 that approximates it; ≥ and ≤ were set here for values at or beyond the usual limits of such assays; conditions: source organism: Dengue virus 1 Brazil/97-11/1997
[32] = molecular target: HLA-A*02:17; assay: as above; conditions: source organism: Dengue virus 1 Singapore/S275/1990
[33] = molecular target: HLA-A*31:01; assay: IEDB peptide-MHC binding, purified MHC/competitive/fluorescence; filed as Kd, often an IC50 or EC50 that approximates it; ≥ and ≤ were set here for values at or beyond the usual limits of such assays; conditions: source organism: Mopeia Lassa virus reassortant 29
[34] = molecular target: HLA-A*11:01; assay: IEDB peptide-MHC binding, purified MHC/direct/fluorescence; filed as Kd, often an IC50 or EC50 that approximates it; ≥ and ≤ were set here for values at or beyond the usual limits of such assays; conditions: source organism: Mammarenavirus lassaense
[35] = molecular target: HLA-B*53:01; assay: IEDB peptide-MHC binding, purified MHC/competitive/radioactivity; filed as Kd, often an IC50 or EC50 that approximates it; ≥ and ≤ were set here for values at or beyond the usual limits of such assays
[36] = molecular target: HLA-A*24:02; assay: as above; conditions: source organism: Dengue virus 4 Philippines/H241/1956
[37] = molecular target: HLA-A*24:02; assay: IEDB peptide-MHC binding, purified MHC/competitive/fluorescence; ≥ and ≤ were set here for values at or beyond the usual limits of such assays; conditions: source organism: Zaire ebolavirus
[38] = molecular target: HLA-A*02:01; assay: IEDB peptide-MHC binding, purified MHC/direct/fluorescence; filed as Kd, often an IC50 or EC50 that approximates it; ≥ and ≤ were set here for values at or beyond the usual limits of such assays
[39] = molecular target: HLA-A*01:01; assay: as above; conditions: source organism: Reston ebolavirus - Reston
[40] = molecular target: HLA-B*15:01; assay: IEDB peptide-MHC binding, purified MHC/competitive/fluorescence; filed as Kd, often an IC50 or EC50 that approximates it; ≥ and ≤ were set here for values at or beyond the usual limits of such assays; conditions: source organism: Zaire ebolavirus
[41] = molecular target: HLA-A*29:02; assay: IEDB peptide-MHC binding, purified MHC/direct/fluorescence; filed as Kd, often an IC50 or EC50 that approximates it; ≥ and ≤ were set here for values at or beyond the usual limits of such assays; conditions: source organism: Zaire ebolavirus
[42] = source organism: Dengue virus 3 Singapore/8120/1995
[43] = source organism: Mycobacterium tuberculosis str. Haarlem
[44] = source organism: Yellow fever virus 1899/81
[45] = source organism: Dengue virus 3 Martinique/1243/1999
[46] = source organism: Hantavirus HPR/02-73
[47] = source organism: Araucaria virus
[48] = source organism: Zaire ebolavirus
[49] = source organism: dengue virus type 3
[50] = source organism: Mopeia Lassa virus reassortant 29
[51] = source organism: Dengue virus 2 Jamaica/1409/1983
[52] = source organism: Dengue virus 4 Dominica/814669/1981
[53] = source organism: Dengue virus 4 Philippines/H241/1956

## HSSTWHYDDE
[1]; [42]
  Kd: 866 nM
[2]; [42]
  Kd: 6580 nM

## ILKERKQAL
[3]; source organism: Listeria monocytogenes serotype 4b str. H7858
  Kd: 1620 nM

## ALFPIIWAL
[4]; [43]
  Kd: 3 nM
[5]; [43]
  Kd: 4 nM
[6]; source organism: Mycobacterium tuberculosis
  Kd: 536 nM
[7]; [43]
  Kd: ≤ 1 nM

## HEVNGTWMI
[8]; [44]
  Kd: ≥ 5000 nM
[9]; [44]
  Kd: ≥ 5000 nM
[10]; [44]
  Kd: ≥ 5000 nM
[11]
  Kd: 9 nM

## SLNLAKEAV
[12]
  Kd: ≥ 34000 nM
[6]; source organism: Campylobacter jejuni
  Kd: 4340 nM
[7]; source organism: Campylobacter jejuni subsp. jejuni HB93-13
  Kd: 3 nM

## ATGPITTLW
[1]; [45]
  Kd: 4.89 nM
[13]
  Kd: 221 nM
[2]; [45]
  Kd: 12.1 nM

## KTKLNDWDF
[2]; [45]
  Kd: 50.7 nM

## GFAIPIILK
[14]; [46]
  Kd: ≥ 20000 nM
[15]; [46]
  Kd: ≥ 20000 nM
[16]; [46]
  Kd: ≥ 20000 nM
[17]; [46]
  Kd: ≥ 20000 nM
[18]; [46]
  Kd: ≥ 20000 nM
[19]; [46]
  Kd: ≥ 20000 nM
[20]; [46]
  Kd: ≥ 20000 nM
[21]; [46]
  Kd: ≥ 20000 nM
[22]; [46]
  Kd: ≥ 20000 nM
[23]; [47]
  Kd: ≥ 20000 nM
[24]; source organism: Juquitiba virus
  Kd: 6000 nM
[4]; [47]
  Kd: ≥ 20000 nM
[25]; [47]
  Kd: ≥ 20000 nM
[5]; [47]
  Kd: ≥ 20000 nM
[26]
  Kd: ≥ 20000 nM

## PMMIQTRAA
[27]; source organism: Vaccinia virus
  IC50: ≥ 298000 nM
[28]
  IC50: 18200 nM

## SQKGQHIEG
[27]; [48]
  IC50: 46500 nM
[29]
  IC50: ≥ 186000 nM

## TLRRRFAVA
[30]
  Kd: 12 nM
[3]; [43]
  Kd: ≥ 20000 nM

## TLYAVATTV
[31]
  Kd: 12.8 nM
[32]
  Kd: 1620 nM
[25]; [49]
  Kd: 10 nM
[5]; [49]
  Kd: 5 nM
[7]; [49]
  Kd: ≤ 1 nM

## RLKFSLSYK
[33]
  Kd: 7.17 nM
[8]; [50]
  Kd: ≥ 5000 nM
[9]; [50]
  Kd: ≥ 5000 nM
[10]; [50]
  Kd: ≥ 5000 nM
[24]; source organism: Mammarenavirus lassaense
  Kd: 48.4 nM
[34]
  Kd: 59.7 nM

## MKITAEWLW
[1]; [51]
  Kd: 5.43 nM
[2]; [51]
  Kd: 43.3 nM
[35]; [51]
  Kd: 1090 nM

## GSSIGKMFES
[1]; [52]
  Kd: 251 nM
[2]; [52]
  Kd: 1830 nM

## VTMTLWYMW
[1]; [53]
  Kd: 1.59 nM
[2]; [53]
  Kd: 7.52 nM
[36]
  Kd: 31.7 nM
[35]; [53]
  Kd: 2540 nM

## VSAGESSIL
[27]; source organism: Vaccinia virus Copenhagen
  IC50: ≥ 87400 nM

## PSSVAARGYI
[1]; [53]
  Kd: 512 nM
[2]; [53]
  Kd: 16400 nM

## GSSIGQMFET
[1]; [51]
  Kd: 1510 nM
[2]; [51]
  Kd: 1080 nM

## GTSLLFLNDM
[2]; [52]
  Kd: ≥ 22100 nM

## TSSQQKADW
[1]; [51]
  Kd: 186 nM
[2]; [51]
  Kd: 29.1 nM

## AFHKEGAFF
[27]; [48]
  IC50: 1880 nM
[37]
  IC50: 19.9 nM

## MVAKYDLLV
[15]; [48]
  Kd: ≥ 20000 nM
[16]; [48]
  Kd: ≥ 20000 nM
[17]; [48]
  Kd: ≥ 20000 nM
[18]; [48]
  Kd: ≥ 20000 nM
[19]; [48]
  Kd: ≥ 20000 nM
[21]; [48]
  Kd: ≥ 20000 nM
[22]; [48]
  Kd: ≥ 20000 nM
[24]; [48]
  Kd: ≥ 20000 nM
[5]; [48]
  Kd: ≥ 20000 nM
[38]; source organism: Reston ebolavirus - Reston
  Kd: 14.1 nM
[39]
  Kd: ≥ 20000 nM

## VLSDLCNFL
[14]; [48]
  Kd: ≥ 20000 nM
[40]
  Kd: ≥ 20000 nM
[15]; [48]
  Kd: ≥ 20000 nM
[16]; [48]
  Kd: ≥ 20000 nM
[17]; [48]
  Kd: ≥ 20000 nM
[18]; [48]
  Kd: ≥ 20000 nM
[19]; [48]
  Kd: ≥ 20000 nM
[20]; [48]
  Kd: ≥ 20000 nM
[21]; [48]
  Kd: ≥ 20000 nM
[22]; [48]
  Kd: ≥ 20000 nM
[23]; [48]
  Kd: ≥ 20000 nM
[24]; [48]
  Kd: ≥ 20000 nM
[38]; source organism: Ebola virus - Gabon (1994-1997)
  Kd: 5 nM
[41]
  Kd: ≥ 20000 nM
